IntAct's records for PubMed 16083711

B1: DNA mismatch repair protein Mlh1 (Homo sapiens), P40692 (parent)
chain: MSFVAGVIRRLDETVVNRIAAGEVIQRPANAIKEMIENCLDAKSTSIQVIVKEGGLKLIQIQDNGTGIRKEDLDIVCERFTTSKLQSFEDLASISTYGFRGEALASISHVAHVTITTKTADGKCAYRASYSDGKLKAPPKPCAGNQGTQITVEDLFYNIATRRKALKNPSEEYGKILEVVGRYSVHNAGISFSVKKQGETVADVRTLPNASTVDNIRSIFGNAVSRELIEIGCEDKTLAFKMNGYISNANYSVKKCIFLLFINHRLVESTSLRKAIETVYAAYLPKNTHPFLYLSLEISPQNVDVNVHPTKHEVHFLHEESILERVQQHIESKLLGSNSSRMYFTQTLLPGLAGPSGEMVKSTTSLTSSSTSGSSDKVYAHQMVRTDSREQKLDAFLQPLSKPLSSQPQAIVTEDKTDISSGRARQQDEEMLELPAPAEVAAKNQSLEGDTTKGTSEMSEKRGPTSSNPRKRHREDSDVEMVEDDSRKEMTAACTPRRRIINLTSVLSLQEEINEQGHEVLREMLHNHSFVGCVNPQWALAQHQTKLYLLNTTKLSEELFYQILIYDFANFGVLRLSEPAPLFDLAMLALDSPESGWTEEDGPKEGLAEYIVEFLKKKAEMLADYFSLEIDEEGNLIGLPLLIDNYVPPLEGLPIFILRLATEVNWDEEKECFESLSKECAMFYSIRKQYISEESTLSGQQSEVPGSIPNSWKWTVEHIVYKALRSHILPPKHFTEDGNILQLANLPDLYKVFERC
partner: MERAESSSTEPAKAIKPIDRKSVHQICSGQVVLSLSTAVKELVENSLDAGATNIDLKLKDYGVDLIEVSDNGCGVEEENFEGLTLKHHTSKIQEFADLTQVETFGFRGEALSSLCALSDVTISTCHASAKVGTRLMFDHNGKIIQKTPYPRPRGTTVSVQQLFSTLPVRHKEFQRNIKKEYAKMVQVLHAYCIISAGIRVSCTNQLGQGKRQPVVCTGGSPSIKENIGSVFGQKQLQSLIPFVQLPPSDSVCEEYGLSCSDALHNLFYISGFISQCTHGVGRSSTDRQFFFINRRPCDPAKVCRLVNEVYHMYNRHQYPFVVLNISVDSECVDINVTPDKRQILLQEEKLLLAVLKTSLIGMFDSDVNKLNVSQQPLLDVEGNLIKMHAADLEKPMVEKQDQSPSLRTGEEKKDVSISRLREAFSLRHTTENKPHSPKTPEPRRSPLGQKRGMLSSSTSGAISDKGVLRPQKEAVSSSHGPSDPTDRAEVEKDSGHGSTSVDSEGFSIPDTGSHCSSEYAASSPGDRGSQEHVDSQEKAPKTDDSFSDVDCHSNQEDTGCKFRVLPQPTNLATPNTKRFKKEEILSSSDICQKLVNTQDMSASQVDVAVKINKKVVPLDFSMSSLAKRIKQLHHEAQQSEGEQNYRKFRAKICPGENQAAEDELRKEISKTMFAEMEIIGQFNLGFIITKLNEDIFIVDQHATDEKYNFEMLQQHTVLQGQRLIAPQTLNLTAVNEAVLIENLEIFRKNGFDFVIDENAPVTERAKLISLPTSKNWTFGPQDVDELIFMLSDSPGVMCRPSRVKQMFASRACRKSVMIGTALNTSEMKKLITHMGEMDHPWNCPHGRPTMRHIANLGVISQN

Variants of: B1
Conditions: with pms2_human PMS2, P54278

Effect of a mutation on the interaction, with no effect:
I107R
H329P
S247P
K443Q
S93G
K84E
C77R
F80V
P28L
G67R
A29S
V213M
I219V
L155R
